Measurements reported in publication PMC9860117, “The nematode α-catenin ortholog, HMP1, has an extended α-helix when bound to actin filaments” (The Journal of Biological Chemistry, 2022).

B1: HMP1/α-catenin F-actin binding domain (FABD, residues 677-927) (domain or fragment, C. elegans, UniProt P90947 677-927, looked up)
chain: NLMRRLPEEEKKKIQAQIDIFKVTQTRFEREVAKWDETGNDIISLANNMCKIMMSMTEFTRGCGPLKTTMDVIRAAQEISLNGSKLNALARQIGEESADSQTKKDLLAYLSQITLYCQQLNICSKVKADVTQVGNELVVSALDSAMSLIQTARNLLTAVVQTVKAAYIASTKFRRPNANSVRVEWRMAPPKKQPLIRPQKNNAIIRRASERRPLQPAKVLAEFTRNEIETGRDSDDEELDRRHQQRINGRL
notes: Cloned into pGEX-6P-1 with a PreScission site by DNA Custom Cloning; also called HMP1/α-catenin FABD; FABD of HMP1/α-catenin; source: E. coli BL21(DE3), purified as described for full-length HMP1/α-catenin; not shown: GST, N-terminal, cleaved
B2: full-length human α-catenin (residues 1-906) (natural protein, UniProt P35221 1-906, looked up)
chain: MTAVHAGNINFKWDPKSLEIRTLAVERLLEPLVTQVTTLVNTNSKGPSNKKRGRSKKAHVLAASVEQATENFLEKGDKIAKESQFLKEELVAAVEDVRKQGDLMKAAAGEFADDPCSSVKRGNMVRAARALLSAVTRLLILADMADVYKLLVQLKVVEDGILKLRNAGNEQDLGIQYKALKPEVDKLNIMAAKRQQELKDVGHRDQMAAARGILQKNVPILYTASQACLQHPDVAAYKANRDLIYKQLQQAVTGISNAAQATASDDASQHQGGGGGELAYALNNFDKQIIVDPLSFSEERFRPSLEERLESIISGAALMADSSCTRDDRRERIVAECNAVRQALQDLLSEYMGNAGRKERSDALNSAIDKMTKKTRDLRRQLRKAVMDHVSDSFLETNVPLLVLIEAAKNGNEKEVKEYAQVFREHANKLIEVANLACSISNNEEGVKLVRMSASQLEALCPQVINAALALAAKPQSKLAQENMDLFKEQWEKQVRVLTDAVDDITSIDDFLAVSENHILEDVNKCVIALQEKDVDGLDRTAGAIRGRAARVIHVVTSEMDNYEPGVYTEKVLEATKLLSNTVMPRFTEQVEAAVEALSSDPAQPMDENEFIDASRLVYDGIRDIRKAVLMIRTPEELDDSDFETEDFDVRSRTSVQTEDDQLIAGQSARAIMAQLPQEQKAKIAEQVASFQEEKSKLDAEVSKWDDSGNDIIVLAKQMCMIMMEMTDFTRGKGPLKNTSDVISAAKKIAEAGSRMDKLGRTIADHCPDSACKQDLLAYLQRIALYCHQLNICSKVKAEVQNLGGELVVSGVDSAMSLIQAAKNLMNAVVQTVKASYVASTKYQKSQGMASLNLPAVSWKMKAPEKKPLVKREKQDETQTKIKRASQKKHVNPVQALSEFKAMDSI
notes: cDNA from Open Biosystems; One construct that was isolated as a monomer pool and as a dimer pool; the dimer pool holds two copies of the chain; also called full-length monomeric human α-catenin; full-length dimeric human α-catenin; source: E. coli BL21(DE3), purified similar to HMP1/α-catenin; monomer and dimer SEC peaks pooled separately and run again on Superdex S200; not shown: GST, …

Experiments:
[1] = biological target: the molecule itself; assay: cryo-EM structure; F-actin (0.7 uM) put on the grid first, then 0.6 mg/ml (21 uM) HMP1/α-catenin FABD added and removed repeatedly; helical reconstruction at 3.36 Å
[2] = biological target: the molecule itself; assay: SEC; Superdex S200 10/300 Gl, 20 mM Tris pH 8, 150 mM NaCl, 0.2 mM TCEP; monomer and dimer peaks pooled separately and each run a second time

Row | Protein | binding result [1] | stoichiometry N [2]
1 | B1 | binds | –
2 | B2 | – | 2
